Data as given in IntAct's records for PubMed 31515488.

B1: Elongin-A2 (Homo sapiens), Q8IYF1 (parent)
chain: MAAGSTTLHAVEKLQVRLATKTEPKKLEKYLQKLSALPMTADILAETGIRKTVKRLRKHQHVGDFARDLAARWKKLVLVDRNTRPGPQDPEESASRQRFGEALQDQEKAWGFPENATAPRSPSHSPEHRRTARRTPPGQQRPHPRSHSREPRAERKCPRIAPADSGRYRASPTRTAPLRMPEGPEPAAPGKQPGRGHTHAAQGGPLLCPGCQGQPQGKAVVSHSKGHKSSRQEKRPLCAQGDWHSPTLIREKSCGACLREETPRMPSWASARDRQPSDFKTDKEGGQAGSGQRVPALEEAPDSHQKRPQHSHSNKKRPSLDGRDPGNGTHGLSPEEKEQLSNDRETQEGKPPTAHLDRTSVSSLSEVEEVDMAEEFEQPTLSCEKYLTYDQLRKQKKKTGKSATTALGDKQRKANESKGTRESWDSAKKLPPVQESQSERLQAAGADSAGPKTVPSHVFSELWDLSEAWMQANYDPLSDSDSMTSQAKPEALSSPKFREEAAFPGRRVNAKMPVYSGSRPACQLQVPTLRQQCAQVLRNNPDALSDVGEVPYWVLEPVLEGWRPDQLYRRKKDNHALVRETDELRRNHCFQDFKEEKPQENKTWREQYLRLPDAPEQRLRVMTTNIRSARGNNPNGREAKMICFKSVAKTPYDTSRRQEKSAGDADPENGEIKPASKPAGSSHTPSSQSSSGGGRDSSSSILRWLPEKRANPCLSSSNEHAAPAAKTRKQAAKKVAPLMAKAIRDYKRRFSRR
partner: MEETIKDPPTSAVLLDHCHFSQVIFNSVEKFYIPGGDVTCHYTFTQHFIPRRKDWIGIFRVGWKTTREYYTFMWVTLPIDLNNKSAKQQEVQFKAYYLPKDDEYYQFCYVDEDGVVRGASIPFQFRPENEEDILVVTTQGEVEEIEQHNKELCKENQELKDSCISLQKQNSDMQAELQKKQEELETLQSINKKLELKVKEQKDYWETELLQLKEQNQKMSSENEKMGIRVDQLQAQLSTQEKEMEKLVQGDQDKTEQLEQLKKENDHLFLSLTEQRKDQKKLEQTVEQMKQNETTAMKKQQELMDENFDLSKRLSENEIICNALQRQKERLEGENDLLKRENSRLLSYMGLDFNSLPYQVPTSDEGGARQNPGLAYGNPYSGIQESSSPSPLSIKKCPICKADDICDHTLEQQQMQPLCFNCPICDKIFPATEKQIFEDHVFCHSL
B2: Geminin (Homo sapiens), O75496 (parent)
chain: MNPSMKQKQEEIKENIKNSSVPRRTLKMIQPSASGSLVGRENELSAGLSKRKHRNDHLTSTTSSPGVIVPESSENKNLGGVTQESFDLMIKENPSSQYWKEVAEKRRKALYEALKENEKLHKEIEQKDNEIARLKKENKELAEVAEHVQYMAELIERLNGEPLDNFESLDNQEFDSEEETVEDSLVEDSEIGTCAEGTVSSSTDAKPCI
partner: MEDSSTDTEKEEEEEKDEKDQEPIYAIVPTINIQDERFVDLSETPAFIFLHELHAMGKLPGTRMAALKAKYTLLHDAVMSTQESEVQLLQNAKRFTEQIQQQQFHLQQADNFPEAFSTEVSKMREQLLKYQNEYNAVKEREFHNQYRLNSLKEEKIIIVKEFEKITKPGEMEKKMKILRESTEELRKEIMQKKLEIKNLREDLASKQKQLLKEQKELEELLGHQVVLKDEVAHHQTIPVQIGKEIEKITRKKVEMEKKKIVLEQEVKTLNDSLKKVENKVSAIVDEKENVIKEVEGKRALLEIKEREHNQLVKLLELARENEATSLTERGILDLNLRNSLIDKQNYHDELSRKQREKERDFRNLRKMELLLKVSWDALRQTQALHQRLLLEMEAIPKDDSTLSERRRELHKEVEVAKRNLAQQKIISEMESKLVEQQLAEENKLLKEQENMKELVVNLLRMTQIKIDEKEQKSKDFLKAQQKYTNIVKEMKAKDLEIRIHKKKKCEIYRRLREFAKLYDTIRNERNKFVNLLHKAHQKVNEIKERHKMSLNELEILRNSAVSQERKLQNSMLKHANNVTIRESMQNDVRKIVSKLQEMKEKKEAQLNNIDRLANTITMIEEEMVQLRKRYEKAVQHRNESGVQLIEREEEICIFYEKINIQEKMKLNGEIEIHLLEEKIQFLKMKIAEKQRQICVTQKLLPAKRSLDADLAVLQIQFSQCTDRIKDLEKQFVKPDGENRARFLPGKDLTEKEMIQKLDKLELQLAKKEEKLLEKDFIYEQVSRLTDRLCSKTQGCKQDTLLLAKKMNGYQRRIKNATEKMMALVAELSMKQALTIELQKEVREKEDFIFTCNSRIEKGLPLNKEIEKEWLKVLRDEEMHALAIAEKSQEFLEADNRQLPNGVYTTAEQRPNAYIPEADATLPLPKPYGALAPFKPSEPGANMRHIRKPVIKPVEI
B3: TNFAIP3-interacting protein 3 (Homo sapiens), Q96KP6 (parent)
chain: MAHFVQGTSRMIAAESSTEHKECAEPSTRKNLMNSLEQKIRCLEKQRKELLEVNQQWDQQFRSMKELYERKVAELKTKLDAAERFLSTREKDPHQRQRKDDRQREDDRQRDLTRDRLQREEKEKERLNEELHELKEENKLLKGKNTLANKEKEHYECEIKRLNKALQDALNIKCSFSEDCLRKSRVEFCHEEMRTEMEVLKQQVQIYEEDFKKERSDRERLNQEKEELQQINETSQSQLNRLNSQIKACQMEKEKLEKQLKQMYCPPCNCGLVFHLQDPWVPTGPGAVQKQREHPPDYQWYALDQLPPDVQHKANGLSSVKKVHP
B4: Vacuolar-sorting protein SNF8 (Homo sapiens), Q96H20 (parent)
chain: MHRRGVGAGAIAKKKLAEAKYKERGTVLAEDQLAQMSKQLDMFKTNLEEFASKHKQEIRKNPEFRVQFQDMCATIGVDPLASGKGFWSEMLGVGDFYYELGVQIIEVCLALKHRNGGLITLEELHQQVLKGRGKFAQDVSQDDLIRAIKKLKALGTGFGIIPVGGTYLIQSVPAELNMDHTVVLQLAEKNGYVTVSEIKASLKWETERARQVLEHLLKEGLAWLDLQAPGEAHYWLPALFTDLYSQEITAEEAREALP
partner: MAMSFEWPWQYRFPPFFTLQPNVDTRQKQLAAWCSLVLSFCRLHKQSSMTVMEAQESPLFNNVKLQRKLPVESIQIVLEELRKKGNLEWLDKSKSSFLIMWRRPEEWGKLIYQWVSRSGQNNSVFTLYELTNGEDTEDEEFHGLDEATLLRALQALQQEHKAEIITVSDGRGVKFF
B5: Docking protein 2 (Homo sapiens), O60496 (parent)
chain: MGDGAVKQGFLYLQQQQTFGKKWRRFGASLYGGSDCALARLELQEGPEKPRRCEAARKVIRLSDCLRVAEAGGEASSPRDTSAFFLETKERLYLLAAPAAERGDWVQAICLLAFPGQRKELSGPEGKQSRPCMEENELYSSAVTVGPHKEFAVTMRPTEASERCHLRGSYTLRAGESALELWGGPEPGTQLYDWPYRFLRRFGRDKVTFSFEAGRRCVSGEGNFEFETRQGNEIFLALEEAISAQKNAAPATPQPQPATIPASLPRPDSPYSRPHDSLPPPSPTTPVPAPRPRGQEGEYAVPFDAVARSLGKNFRGILAVPPQLLADPLYDSIEETLPPRPDHIYDEPEGVAALSLYDSPQEPRGEAWRRQATADRDPAGLQHVQPAGQDFSASGWQPGTEYDNVVLKKGPK
partner: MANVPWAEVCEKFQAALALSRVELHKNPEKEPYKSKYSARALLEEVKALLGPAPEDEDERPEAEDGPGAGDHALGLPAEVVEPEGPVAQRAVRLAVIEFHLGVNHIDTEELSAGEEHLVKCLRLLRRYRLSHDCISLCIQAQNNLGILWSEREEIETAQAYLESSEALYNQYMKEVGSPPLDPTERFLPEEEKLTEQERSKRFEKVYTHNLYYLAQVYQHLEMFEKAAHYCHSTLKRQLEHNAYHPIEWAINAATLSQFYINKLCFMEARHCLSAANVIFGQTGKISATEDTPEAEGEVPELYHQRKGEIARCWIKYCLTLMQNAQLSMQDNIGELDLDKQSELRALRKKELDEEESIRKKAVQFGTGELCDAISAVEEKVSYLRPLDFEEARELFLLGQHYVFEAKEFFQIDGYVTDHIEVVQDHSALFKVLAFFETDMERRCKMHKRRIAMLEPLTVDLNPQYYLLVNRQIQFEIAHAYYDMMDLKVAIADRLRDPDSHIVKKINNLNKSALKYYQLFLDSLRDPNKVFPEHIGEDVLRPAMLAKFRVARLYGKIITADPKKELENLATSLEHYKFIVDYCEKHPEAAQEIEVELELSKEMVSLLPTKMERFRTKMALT
B6: Tripartite motif-containing protein 59 (Homo sapiens), Q8IWR1 (parent)
chain: MHNFEEELTCPICYSIFEDPRVLPCSHTFCRNCLENILQASGNFYIWRPLRIPLKCPNCRSITEIAPTGIESLPVNFALRAIIEKYQQEDHPDIVTCPEHYRQPLNVYCLLDKKLVCGHCLTIGQHHGHPIDDLQSAYLKEKDTPQKLLEQLTDTHWTDLTHLIEKLKEQKSHSEKMIQGDKEAVLQYFKELNDTLEQKKKSFLTALCDVGNLINQEYTPQIERMKEIREQQLELMALTISLQEESPLKFLEKVDDVRQHVQILKQRPLPEVQPVEIYPRVSKILKEEWSRTEIGQIKNVLIPKMKISPKRMSCSWPGKDEKEVEFLKILNIVVVTLISVILMSILFFNQHIITFLSEITLIWFSEASLSVYQSLSNSLHKVKNILCHIFYLLKEFVWKIVSH
partner: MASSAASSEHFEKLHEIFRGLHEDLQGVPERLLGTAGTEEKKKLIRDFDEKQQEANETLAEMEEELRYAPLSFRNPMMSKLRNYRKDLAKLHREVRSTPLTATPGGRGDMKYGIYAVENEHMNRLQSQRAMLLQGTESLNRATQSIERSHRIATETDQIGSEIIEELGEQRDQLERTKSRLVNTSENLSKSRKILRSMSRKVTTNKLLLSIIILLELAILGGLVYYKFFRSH

Variants of: B1
Settings: with caco2_human CALCOCO2, Q13137

Row | effect of a mutation on the interaction | Variant
1 | with no effect | R498Q
2 | with no effect | D302H
3 | with no effect | R179P
4 | disrupting interaction strength | G505R

Variants of: B2
Settings: with cc146_human CCDC146, Q8IYE0

Row | effect of a mutation on the interaction | Variant
5 | with no effect | N15H
6 | with no effect | E167D

Variants of: B3
Settings: with taxb1_human TAX1BP1, Q86VP1
Chain of taxb1_human TAX1BP1, Q86VP1 (Q86VP1 whole entry): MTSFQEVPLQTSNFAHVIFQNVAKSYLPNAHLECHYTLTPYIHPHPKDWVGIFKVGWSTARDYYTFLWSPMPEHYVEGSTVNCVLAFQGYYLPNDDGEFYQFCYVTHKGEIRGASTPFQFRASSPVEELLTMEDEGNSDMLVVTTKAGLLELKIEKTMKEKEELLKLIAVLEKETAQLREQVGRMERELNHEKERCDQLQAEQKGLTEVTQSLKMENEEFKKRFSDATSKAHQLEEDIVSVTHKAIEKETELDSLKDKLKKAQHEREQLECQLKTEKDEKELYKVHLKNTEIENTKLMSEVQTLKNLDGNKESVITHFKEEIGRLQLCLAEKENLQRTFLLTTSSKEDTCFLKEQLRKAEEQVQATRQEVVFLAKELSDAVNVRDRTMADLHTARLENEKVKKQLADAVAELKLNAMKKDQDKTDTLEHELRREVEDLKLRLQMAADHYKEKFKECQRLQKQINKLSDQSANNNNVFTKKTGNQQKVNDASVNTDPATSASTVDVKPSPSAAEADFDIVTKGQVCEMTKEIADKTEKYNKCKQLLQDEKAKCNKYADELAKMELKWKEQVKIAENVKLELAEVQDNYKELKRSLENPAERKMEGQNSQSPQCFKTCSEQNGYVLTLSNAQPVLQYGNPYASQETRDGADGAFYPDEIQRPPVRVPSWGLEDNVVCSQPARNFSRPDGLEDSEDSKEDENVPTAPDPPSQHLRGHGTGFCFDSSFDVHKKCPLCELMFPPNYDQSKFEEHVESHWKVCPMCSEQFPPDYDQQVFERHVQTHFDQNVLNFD

Row | effect of a mutation on the interaction | Variant
7 | with no effect | K99E

Variants of: B4
Settings: with vps25_human VPS25, Q9BRG1

Row | effect of a mutation on the interaction | Variant
8 | with no effect | Q185R
9 | with no effect | A17T

Variants of: B5
Settings: with kbp_human KIFBP

Row | effect of a mutation on the interaction | Variant
10 | disrupting interaction strength | P274L

Variants of: B6
Settings: with vti1b_human VTI1B

Row | effect of a mutation on the interaction | Variant
11 | with no effect | I277V
